# According to the nanobody polyreactivity screen of Harvey et al. (2022):
# Experiment: yeast display, Sf9 membrane polyspecificity reagent, FACS + sequencing; frameworks hold sequencing errors
# In short: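 In a synthetic yeast display library (Saccharomyces cerevisiae BJ5465), nanobody expression was induced with galactose for 36–48 hours. FACS gates were set low and high (top ~1%) using anti-HA fluorescence for expression and streptavidin fluorescence for binding of the Sf9 membrane reagent. Each polyreactivity label is drawn from the gate of origin.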
row,Sequence,polyreactivity (PSR sort gate)
1,QVQLVESGGGLVQAGGSLRLSCAASGSIFRINVMGWYRQAPGKERELVAAISYSGGRTYYADSVKGRFTISRDNAKKTVYLQMNSLKPEDTAVYYCAATRSNFIYDYWGQGTQVTVSS,high polyreactivity
2,QVQLVESGGGLVQAGGSLRLSCAASGSIFRIYAMGWYRQAPGKERELVAAISFSTGSRTYYADSVKGRFTISRDNAKNTVYLQMNSLKPEDTAVYYCAAEYHPRVLYPNWYDYWGQGTQVTVSS,low polyreactivity
3,QVQLVESGGGLVQAGGSLRLSCAASGSIFRIYAMGWYRQAPGQESELVAAINAGGGRTYYADSVKGRFTISRDNAKNTVYLQMNSLKPEDTAVYYCAARHTEYRQESLYYWGQGTQVTVSS,low polyreactivity
4,QVQLVESGGGLVQAGGSLRLSCAASGSIFRLNAMGWYRQARGKERELVARIDSSGSTNYTDSVKGRFTISRDNAKNTVYLQMNSLKPEDTAVYYCAAGLVLIVGMDSWGQGTQVTVSS,low polyreactivity
5,QVQLVESGGGLVQAGGSLRLSCAASGSIFRLNTMGWYRQAPGKEMEFVAAISKGGTSTYYADSVKARFTISRDNAKNTVYLQMNSLKPEDTAVYYCAADYYSLYEATTDFDYWGQGTQVTVSS,high polyreactivity
6,QVQLVESGGGLVQAGGSLRLSCAASGSIFRLYAMGWYRQAPGKEREFVARIRWRGGCTNYADSVKGRITISRDNAKNTVYLQMNTLKPEDTAVYYCAVKGAGGPKYDYWGHGTQVTVSS,high polyreactivity
7,QVQLVESGGGLVQAGGSLRLSCAASGSIFRLYAMGWYRQAPGKERELVAAITWRSGSTYYADSVKGRFTISRDNAKNTVYLQMNSLKPEDTAVYYCAADSLYRLYNYWGQGTQVTVSS,high polyreactivity
8,QVQLVESGGGLVQAGGSLRLSCAASGSIFRPYAMGWYRQAPGKERELVAAISYRGGSTYYADSVKGRFTISRDYAKNTVYLLMNRLKPEDTAVYYCAADSREEGDYWGQGTQVTVSS,low polyreactivity
9,QVQLVESGGGLVQAGGSLRLSCAASGSIFRPYTMGWYRPAPGKERELVAGITSGGGTYYADSVKGRFTISRDNAKNTVYLQMNSLKPEDTAVYYCAADNWKTRSLVDYWGQGTEVTVSS,high polyreactivity
10,QVQLVESGGGLVQAGGSLRLSCAASGSIFRRNAMGWYRQAPGKERELVAGIRGSGGSTYYADSVKGRFTISRDNAKNTVYLQMNSLKPEDTAVYYSAARRSYYHGSYDYWGQGTQVTVSS,high polyreactivity
11,QVQLVESGGGLVQAGGSLRLSCAASGSIFRRYAKGWYRQAPGKERELVAAITNRGGTTYYADSVKGRFTISRDNAKNSVYLQMNSLKPEDTAVYYCNAYYRTKGGFRFGYWGQVTQVTVSS,high polyreactivity
12,QVQLVESGGGLVQAGGSLRLSCAASGSIFRRYAMGWYRQAPGKERELVAAISIGGGSTYYADSVKGRFTISRDNAKITVYLQMNSLKPEDTAVYYCNAYWKDDFEDGPGRRGMDYWGQGTQVTVSS,low polyreactivity
13,QVQLVESGGGLVQAGGSLRLSCAASGSIFRRYAMGWYRQAPGKERELVAAISWRGDSTYYADSVKGRFTISRDNAKNTVYLQMNSLKPEDTAVYYCNSLIGANPLCYAARYDYWGQGTQVTVSS,low polyreactivity
14,QVQLVESGGGLVQAGGSLRLSCAASGSIFRRYTMGWYRQAPGKEREFVAVISRDGGSTYYADSVKGRFTISRDNAKNTVYLQMNSLKPEDTAVYYCAARLVRRYDYDYWGQGTQVTVSS,high polyreactivity
15,QVQLVESGGGLVQAGGSLRLSCAASGSIFRSNDMGWYRKAPGKERELVARITSSVGSTYYADSVKGRFTISRDNAKNTVYLQMNSLKPEVTAVYYCAKRYYHYPYGYRDYDYWGQGTQVTVSS,low polyreactivity
16,QVQLVESGGGLVQAGGSLRLSCAASGSIFRSYAMGWYRQAPGKERELVAAISSSGGRTYYADSVKGRFTISRDNAKNTVYLQMNSLKPEDTAVYYCAAYGGGGYKYDYWGQGTQVTVSS,low polyreactivity
17,QVQLVESGGGLVQAGGSLRLSCAASGSIFRSYAMGWYRQAPGKERELVAGITRGGSTNYADSVKGRFTISRYNAKNTVYLQMNSLKPEDTAVYYCNADTVSLGHSLDDGDYWGQGTQVTVSS,low polyreactivity
18,QVQLVESGGGLVQAGGSLRLSCAASGSIFRTNAMGWYRQAPGKERELVAAISQRGGSTYYADSVKGRFTISRDNAKNTVYLQMNSLKPEDTAVYYCAAPYTQKRGYDYWGQGTLVTVSS,high polyreactivity
19,QVQLVESGGGLVQAGGSLRLSCAASGSIFRTNAMGWYRQAPGKERELVASISRRGGSTYYADSVKGRFTISRDNAKNTVYLQMNSLKPEDTAVYYCAAVGYYSNTLHPWWDMYYWGQGTQVTVSS,high polyreactivity
20,QVQLVESGGGLVQAGGSLRLSCAASGSIFRTNTMGWYRQAPGKERELVARINRGGRTYYADSVKGRFTISRDNAKNTVYLQMNSLKPEDTAVYYCAAAPFFPHWYGYDYWGQGTHVTVSS,high polyreactivity
21,QVQLVESGGGLVQAGGSLRLSCAASGSIFRTYVMGWYRQAPGKERELVAAITASGGRTYYADSVKGRFTISRDNAKNSVYLQMNSLKPEDTAVYYCAAVSRGRYADSFDHWGQGTQVTVSS,high polyreactivity
22,QVQLVESGGGLVQAGGSLRLSCAASGSIFRVNAMGWYRQAPGKERELVAAITSGGTTTYYADSVKGRFTISLDNAKNTVYLQMNSLKPEDTAVYYCSKYPYPIYHTDGDDWGQGTQVTVSS,low polyreactivity

row,Sequence,polyreactivity (PSR sort gate)
1,QVQLVESGGGLVQAGGSLRLSCAASGSIFRVYAMGWYRQAPGKERELVARISRTGVSTYYADSVKGRFTISRDNAKNTVYLQMNSLKPEDTAVYYCAVLIPYSSRSYRSTWYGYWGQGTQVTVSS,high polyreactivity
2,QVQLVESGGGLVQAGGSLRLSCAASGSIFRVYAMGWYRRAPGKERELVATITWNGGSTYYADSVKGRFTISRDNAKNTVYLQMNSLKPEDTAVYYCAKPTSWRRVLPMDYWGQGTQVTVSS,low polyreactivity
3,QVQLVESGGGLVQAGGSLRLSCAASGSIFRWNAMGWNRQEPGKERELVAVINSSGGSTYYADSVKGRFTISRDNAKNTVYLQMNSLKPEDTAVYYCAKGYDTTLTYNYWGQGTQVTVSS,low polyreactivity
4,QVQLVESGGGLVQAGGSLRLSCAASGSIFRWNAMGWYRQAPGKERELVAAITYSGGTTYYADSVKGRFTISRDNAKNTVYLQMNSLKPEDTAVYYCAATYYDYYRLYHLGYWGQGTQVTVSS,high polyreactivity
5,QVQLVESGGGLVQAGGSLRLSCAASGSIFRWNSMGGYRQAPGKERELVASITSGGSTYYADSVKGRFTISRDNAKNTVYLQMNSLKPEDTAVYYCAAARYPGRKFDYWGQGTQVTVSS,high polyreactivity
6,QVQLVESGGGLVQAGGSLRLSCAASGSIFRWYAMGWYRQAPGKERELVAAITWSASRTYYADSVKGRFTISRDNAKNTVYLQMNSLKPEDTAVYYCAADHDGPYAGYDSWGQGTQVTVSS,low polyreactivity
7,QVQLVESGGGLVQAGGSLRLSCAASGSIFRYNTMGRYRQAPGKERELVATITRRGGSTYYADSVKGRFTISRDNAKNTVYLQMNSLKPEDTAVYYCNADNFGGPYNYWGQGTQVTVSS,low polyreactivity
8,QVQLVESGGGLVQAGGSLRLSCAASGSIFRYYAMGWYRQAPGKERELVAAIRVSTGSTSYADSVKGRFTISRDNAKKSVYLQMNSLIPAVTAVYYCNARSRLVIAYRQHNYWGQGTQVTVSS,high polyreactivity
9,QVQLVESGGGLVQAGGSLRLSCAASGSIFRYYAMGWYRQAPGKERELVAAISRRGSSTYYADSVKGRFTISRDNAKNTVYLQMNSLNPEDTAVYYCAAGDFKQYDYWGQGTQVTVSS,high polyreactivity
10,QVQLVESGGGLVQAGGSLRLSCAASGSIFRYYAMGWYRQAPGKERELVAAISSNGGSTYYADSVKGRFTISRDNAKNTVYLQMNSLKPEDTAVYYCNAVKVGPYYFRSDYWGQGTQVTVSS,high polyreactivity
11,QVQLVESGGGLVQAGGSLRLSCAASGSIFRYYAMGWYRQAPGKERELVAAITSSAGSTYYADSVKGRFTISRDNAKNTVYLQMNSLKPEDTAVYYCNALVQGKEYYWGQGTQVTVSS,high polyreactivity
12,QVQLVESGGGLVQAGGSLRLSCAASGSIFRYYAMGWYRQAPGKERELVASISWSGTSTNYADSVKGRFTISRDNAKNTVYLQMNSLKPEDTAVYYCNKVRWGRYYTRYDYWGQGTQVTVSS,high polyreactivity
13,QVQLVESGGGLVQAGGSLRLSCAASGSIFRYYAMGWYRQAPGKERELVASITRRGGSTYYADSVKGRFTISRDNAKNTVYLQMNSLKPEDTAFYYCAAHKTYVREYYWGQGTQVTVSS,high polyreactivity
14,QVQLVESGGGLVQAGGSLRLSCAASGSIFRYYAMGWYRQAPGKERELVATISWSGGGTYYADSVKGRFTISRDTAKNTVYLLMNSLKPDVTGVYYCAAVGTVPRKQRYHSYIDYDYWGQGTQVTVSS,low polyreactivity
15,QVQLVESGGGLVQAGGSLRLSCAASGSIFRYYAMGWYRQAPGKERELVAVITGTGGSTYYADSVKGRFTISRDNAKNTVYLQMNSLKPEDTAVYYCNVYRPWGWFDYWGQGTQVTVSS,high polyreactivity
16,QVQLVESGGGLVQAGGSLRLSCAASGSIFRYYAMGWYRQAPRKERELVAAISSNGGSTSYADSVKGRFTISRDNAKNTVYLQMNSLIPEYTAVYYCNTQFRYPQKYDYWGQGTQVTVSS,high polyreactivity
17,QVQLVESGGGLVQAGGSLRLSCAASGSIFRYYDMGWYRQAPGKERELVAAISTSGVRTNYADSVKGRFTISRDNAKNTVYLQMNSLKPEDTAVYYCAARSQIYYRYRSYGYWGQGTQVTVSS,high polyreactivity
18,QVQLVESGGGLVQAGGSLRLSCAASGSIFRYYTMGWYRQAPGKERELVASISRGGNTYYADSVKGRFTISRDNAKNTVYLQMNSLKPEDTAVYYCNVRLSYSYISQSDWNFDYWGQGTQVTVSS,low polyreactivity
19,QVQLVESGGGLVQAGGSLRLSCAASGSIFRYYVMGWSRQAPGKERELVASISYSVGRTYYADSVKGRFTISRDNAKNTVYLQMNCLKPEDTAVYYCAADRYWPYYSAYYTSYRMDYWGQGTQVTVSS,high polyreactivity
20,QVQLVESGGGLVQAGGSLRLSCAASGSIFSAYAMGWYRQAPGKERELVAAISSRGSRTYYAYSVKGRFTISRDYAKNSVYLQMNSLKPEDTAVYYCAADPFSSYYKMDYWGQGTQVTVSS,high polyreactivity
21,QVQLVESGGGLVQAGGSLRLSCAASGSIFSAYVMGWYRQAPGKERELVAAINRGGNTYYADSVKGRFTISRDNAKNTVYLQMNSLKPEDTAVYYCNAQWYYLRYRYDYWGQGTQVTVSS,high polyreactivity
